Test results as given in the DeepSol protein solubility set.

assay: soluble on expression in E. coli; label from the status in PepcDB or PDB records

Row | Sequence | soluble on expression in E. coli
1 | MGSDKIHHHHHHMGLFDFLKKGLQKTKETFFGRVVKLLKGKKLDDETREELEELLIQADVGVETTEYILERLEEKDGDALESLKEIILEILNFDTKLNVPPEPPFVIMVVGVNGTGKTTSCGKLAKMFVDEGKSVVLAAADTFRAAAIEQLKIWGERVGATVISHSEGADPAAVAFDAVAHALARNKDVVIIDTAGRLHTKKNLMEELRKVHRVVKKKIPDAPHETLLVIDATTGQNGLVQAKIFKEAVNVTGIILTKLDGTAKGGITLAIARELGIPIKFIGVGEKAEDLRPFDPEAFVEVLLSE | soluble
2 | MNERIFRENTRPVQVGNLTIGGSEELTIQSMTTTKTHDVEATVAEIHRLEEVGCQIVRVACPDERAANALSAIKKRIHIPLVADIHFDYRLALKAIDAGVDKIRINPGNIGRRDRVEKVVNAAKAKNIPIRIGVNAGSLEKKIIQKYGYPTAEGMVESALAHIKILEDLDFYDIIVSLKASDVNLAIEAYDKASRAFNYPLHLGITESGTQFAGGIKSAAGLGAILSLGIGNTLRVSLSADPVEEIKVAREVLKSFGLSSNAAMLISCPTCGRIEIDLIRIANEVENYIATIKAPIKVAVLGCAVNGPGEAREADIGIAGSNGEGLLFRHGKIIRKVPEAIMVEELKKEIDILAEEYFEKKTDLESLR | not soluble
3 | MGHHHHHHSHGGVGKKEQLSVKKLRVVLFALCCNTEQAAEHFRNPQRRIRRWLRRFQASQGENLEGKYLSFEAEEKLAEWVLTQREQQLPVNEETLFQKATKIGRSLEGGFKISYEWAVRFMLRH | not soluble
4 | MAGRKEEELKDLTLLGNQGTTYSFTYNPNLLEVFDNKHPDRDYFVKFNCPEFTTLCPKTGQPDFATIYITYIPDKKCVESKSLKLYLFSFRNHGDFHEDCVNIIMNDLIKVMEPRYIEVWGKFTPRGGISIDPYCNWGRPGTKYEKMAEYRLLNHDLYPEKVDNR | not soluble
5 | MSIPINFNNLKYLLNDMRNKNRIIEAFPFNYNQRQYAVILTRYKPDEPRPDDYAQAKLEFFNLNSENSIFAYADFYEVHFKSATDFINFFKINVQAGAAKIREIFQSFSNLFADFIPTQTKKDLDIIYKKIVATRLEPNSPNTIYCYDVRRNGKDKAGKPNRRSVENSEKAKILRPELYEKFKADSNYSFFFSDNPSDEKTDAEIIREVTNRQ | not soluble
6 | MDRVTRYPILGIPQAHRGTGLVLDGDTSYTYHLVCMGPEASGWGQDEPQTWPTDHRAQQGVQRQGVSYSVHAYTGQPSPRGLHSENREDEGWQVYRLGARDAHQGRPTWALRPEDGEDKEMKTYRLDAGDADPRRLCDLERERWAVIQGQAVRKSSTVATLQGTPDHGDPRTPGPPRSTPLEENVVDREQIDFLAARQQFLSLEQANKGAPHSSPARGTPAGTTPGASQAPKAFNKPHLANGHVVPIKPQVKGVVREENKVRAVPTWASVQVVDDPGSLASVESPGTPKETPIEREIRLAQEREADLREQRGLRQATDHQELVEIPTRPLLTKLSLITAPRRERGRPSLYVQRDIVQETQREEDHRREGLHVGRASTPDWVSEGPQPGLRRALSSDSILSPAPDARAADPAPEVRKVNRIPPDAYQPYLSPGTPQLEFSAFGAFGKPSSLSTAEAKAATSPKATMSPRHLSESSGKPLSTKQEASKPPRGCPQANRGVVRWEYFRLRPLRFRAPDEPQQAQVPHVWGWEVAGAPALRLQKSQSSDLLERERESVLRREQEVAEERRNALFPEVFSPTPDENSDQNSRSSSQASGITGSYSVSESPFFSPIHLHSNVAWTVEDPVDSAPPGQRKKEQWYAGINPSDGINSEVLEAIRVTRHKNAMAERWESRIYASEEDD | not soluble
7 | MYSEERRRQIASLTAVEGRVNVTELAARFDVTAETIRRDLAVLDREGVVHRVHGGAVANQTFQTAEFSLDTRSRSASGAKNSIAHAALSYLPEAQGGLFLDAGTTTAALAELLAAQPFAKHWSIVTNSLSIALTLANSGLDEIQLLGGSVRAITQAVVGDTALRTLALMRADVAFIGTNALTIDHGLSTADSQEAAIKSAMITNAHKVVVLCDSTKMGTDYLVSFGSISDIDVIITDANAPESFVKALRDRDVEVIIALEHHHHHH | soluble
8 | DRTTYYSILGLTSNATSSEVHKSYLKLARLLHPDKTKSDKSEELFKAVVHAHSILTDEDQKLRYDRDLKIKGLHTYQPKK | not soluble
